From publication PMC10998830
Several values for one entry are separate records, joined by “and”; a condition that tells them apart may be missing. Equal entries are not always repeated.

Tests used:
[1] = test system: Nc1ncnc2c1ncn2[C@@H]1O[C@H](COP(=O)(O)OP(=O)(O)OP(=O)(O)O)[C@@H](O)[C@H]1O; assay: purified protein, by the assay type; settings: 25.0 °C
Protocol: (§1) Kinetics and thermal denaturation data were analysed by the nonlinear regression function of SigmaPlot 14.0 (SPSS Inc.). Thermal denaturation data were fitted to Eq. (1). Substrate saturation curves at a fixed concentration of the co-substrate were fitted to Eq. (2). Initial rate data at varying concentrations of HisZ were fitted to Eq. (3). The concentration of ATPPRT at any concentration of AbHisGS and AbHisZ was calculated according to Eq. (4). Histidine dose-response data were fitted to Eq. (5). Single-turnover data with WT-AbATPPRT isotopologues were fitted to Eq. (6). Plots of kcat ratios against relative viscosity were fitted to Eq. (7). Temperature-rate profile for AbHisGS was fitted to Eq. (8). Single-turnover data with R70A-AbATPPRT isotopologues were fitted to Eq. (9). In Eqs. […] While kcats for [^13C,^15N]AbHisGS and [^2H,^13C,^15N]AbHisGS are marginally lower than for unlabelled AbHisGS and [^15N]AbHisGS, the overlapping nature of most data points in Fig. 1c disagrees with distinguishable heavy-enzyme kinetic isotope effects on kcat (^HEkcat). […] This was further probed by pre-steady-state kinetics under multiple-turnover conditions. The AbHisGS reaction had been shown not to have a burst of product formation, which is reproduced here for unlabelled AbHisGS, whose traces overlap with those for [^2H,^13C,^15N]AbHisGS (Supplementary Fig. 5). S5 Supplementary Figure 4 Substrate saturation curves for unlabelled AbATPPRT with AbHisGS purified from cultures grown in M9 and M9 with high cell density compared with previously published data (reproduced here) for unlabelled AbATPPRT with AbHisGS purified from cultures grown in LB. For the M9 and M9 high cell density curves, all data points are shown for two independent measurements, except for the previously published LB curves, where data are the mean of two independent measurements. Lines are best fit of the data to equation (2): solid line for M9 high cell density curves, long-dashed line for M9 curves, and short-dashed line for previously published LB curves. Supplementary Figure 5 Rapid kinetics of PRATP formation at 25 °C by unlabelled AbHisGS and [2H,13C,15N]AbHisGS under multiple-turnover conditions. All traces are shown for eight replicates with each isotopologue.

[2] = test system: O=P(O)(O)OC[C@H]1O[C@H](OP(=O)(O)OP(=O)(O)O)[C@H](O)[C@@H]1O; assay: purified protein, by the assay type; settings: 25.0 °C
Protocol: as §1

Substance: AbHisGS (Acinetobacter baumannii ACICU)
- Km [1]: 900 ± 100 µM and 800 ± 100 µM and 590 ± 30 µM
- kcat [1]: 0.38 s⁻¹ and 0.34 s⁻¹
- kcat/Km [1]: 420 M⁻¹ s⁻¹ and 580 M⁻¹ s⁻¹
- Km [2]: 540 ± 40 µM and 330 ± 10 µM and 420 ± 20 µM
- kcat [2]: 0.38 s⁻¹ and 0.34 s⁻¹
- kcat/Km [2]: 700 M⁻¹ s⁻¹ and 1020 M⁻¹ s⁻¹ and 810 M⁻¹ s⁻¹
